Laboratory results as given in the supplement of paper PMC11502859.

System: HEK293T
Assay: median enrichment of reporter reads in eGFP-reduced (low/intermediate) vs eGFP-high sorted cells (eGFP-extension fusion abundance) (ratio); higher = stronger loss of eGFP-fusion protein abundance (more destabilising extension)
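Note: lentiviral eGFP-IRES-mCherry reporter pool sorted by FACS 96 h post-transduction, gated on mCherry-high cells, Illumina read counts normalized per million, median across four biological replicates.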

Substance | median enrichment
WLTAALAHSARGQDGGYLRPVLSCLFVFLIRDHVGLLRTRKAGKFPAGPSA [MKS1] | 10.7
RRRRRRRRRR [Arg10] | 0.77
SPYRKAGRL [BCKDHB] | 19.5
KNQGCFEGKGSLSYALLYHQDYILKRKSSM [GPR65] | 11.5
IVGPKGKEGKSAPRLGPGTHTPPDHLGNSRALRSRMLTKSNIQSLVNQDAVSPSVWQSVALAAGKLKADFHSYVHVDIHFRSS [RNF150] | 4.94
YGTKPRRIPPQ [CA10] | 0.595
QTGQDPSTCTC [FCN1] | 0.258
QTLPFLFEFFRGKG [PCBD1] | 2.9
CAPWWERL [HTT] | 1.22
CVAGVEVLIEYDRRMTITLSAQCG [OR10H2] | 6.41
YIMRHTV [TBC1D32] | 5.87
QKVPLANCLEAQHNPKALFR [HIST1H1E] | 2.26
SSSSSSSS [Ser08] | 0.512
KQQPV [DPPA2] | 0.433
PWPHQWHRGAPATGWPSGQPEHQGHCQPAAEAGEQDRDRPQRALPGQPSGFLRDGGRAGGRWRGMVDVPKRCQRAAGFRILLC [DECR2] | 3.51
CGSCGCPCCVALYDCC [NDUFB10] | 4.77
RNHKEPSVPVHEISLLLENRNIDYQITMQLKPYCFFEQLFIPVIKTDCAEYSKRSEIGVYNYIFSDAIY [RPE] | 8.87
LLL [Leu03] | 4.12
CSFPVPSHYSPKLGKGGGTYEKNSSGFITDWE [CNOT9] | 3.28
KKEKKQAILDENANGKIHITSYLL [PRDM4] | 6.45

Substance | median enrichment
CVWGLAPCSPGPHCSHTLRLGPPSLLWC [TOM1] | 9.33
RTCGRPF [CMTM1] | 6.49
ELSF [ADHFE1] | 0.232
DDDDDDDDDD [Asp10] | 0.433
AAAAAAA [Ala07] | 8.7
RRRR [Arg04] | 0.344
SEVRPGPGQGLGPAPCPICSGPQAPPFEEVG [GUCY2D] | 1.47
QSPSVLPLSPLSPWPVVVPQPLPPSTSSVSPSPRLINLLIDCDSK [ERGIC3] | 9.24
YYCTELP [ADAM18] | 4.78
YRKVSVSPNPHSNEF [GPR22] | 41.8
LPSTCPWGQEHPRPQKRERKGQKKEEKKNVQKDFRSSHSYF [TOB2] | 0.26
CEGQTPEEPLQ [CXCL12] | 0.136
KCEACDKVSIWKSHLKDIGEFILERKLTNVRFLTRLGSDSHLEQHTGLHTGEKPYKCNECGKAFGKQSTLIHHQAIHGVGKLD [ZNF611] | 6.92
QSCSIHIGLMD [ZCCHC10] | 0.408
LHSCTPISRAASLPSRGLQQCAWLAAAPPRAPWPRRCQPT [THSD4] | 7.14
IIIIIII [Ile07] | 11
TPAPGLGRELTRTGCSQKAGPSLSPKPLLDLWRSCRLDREAVPLSSPSPSRASPWSFRSSFWGLFQVRRMEEGGQATQHPPTP [FOXN4] | 5.36
GVPAHSCGKGGEGRRARPEQGAGGRAQYLTRAAVLINVPMAGPRSEPASSATVTFSLRDGGGGSLSRWLSRPRSRPWVLSQLG [DUSP9] | 4.83
RVWGPCQPAAPKPAPLPKQPRPLPLNPGPGRPGRPPVTAAAPALCRAALTCLPSQPLTSRLSLGQREPFGGAACLLWFWEG [FLNA] | 3.47
SPRSWILQCINKRSQAGFISETIN [SGCD] | 39.2

Substance | median enrichment
SETEASLFHSPS [EPB41L4B] | 0.374
RVTKKTMHHKIAQSSAEQFSGDPWTQ [CXCL6] | 0.284
YRLLSKHRFSR [Degron FEM1A/C] | 5.74
WVAPPSWGEVPSRLRRRGARGRS [PHLDB3] | 16.2
ELQEAN [GZMB] | 0.208
YTSGKKIFTCAGL [DDX46] | 3.47
YKKVGTMRGRGL [Degron APPBP2] | 16.9
EKYHLPYAARDLQTFFLPFW [SPAG11A] | 6.64
SGLELYPGPNSRTTRGLQTFLGGQAGQMAPPLGNAPSCAVERS [ELF3] | 2.16
RDI [ACSM2A] | 0.259
RVFGNRISCVAHRPVEKLEPKLSYLEMTFGLDSW [C12orf76] | 4.28
SISPSC [OR5AK2] | 0.461
RERTTPSLPSMDGHSSAASSATSCSQPMPGGAAIFSPHHPFTHS [EHMT2] | 0.484
LVW [ZNF160] | 1.8
MLSESRNFPAQA [Degron KLHDC3] | 4.77
RAPVGKGGGLRGRGWMPRAPKPPFPFVSKGVRSELRKRASECVSLEGLGALWCYHLETCLMPPCLPMEDRLQELGPCGNLACF [MTA2] | 5.52
LHTQSPGVGHTAVISQS [ALLC] | 0.756
RGAHGQDWWGLQDVRRVRCLALATLFLVGFCCCSCYFHL [PSMC3IP] | 7.83
